# System: Escherichia coli TOP10
# Test: shrunken log2 fold change of peptide-encoding DNA abundance (4.5 h post-induction vs induction); higher = less antimicrobial activity (less host growth inhibition)
# Conditions: time post-induction: 4.5 h; library: site-saturation at positions 5, 18, 19, 20
# 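Further: peptides expressed intracellularly from a pBAD plasmid library in pooled LB shake-flask culture, induced with 0.3% L-arabinose, DNA abundance read by NGS, three biological replicates, DESeq2 with apeglm shrinkage.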
row,Sequence,shrunken log2 fold change
1,RRIRLRPPRLPRPRPRPDWHPRP,-0.264
2,RRIRHRPPRLPRPRPRPARAPRP,0.345
3,RRIRPRPPRLPRPRPRPYNWPRP,-0.731
4,RRIRPRPPRLPRPRPRPSQQPRP,0.0138
5,RRIRVRPPRLPRPRPRPDPAPRP,0.142
6,RRIRVRPPRLPRPRPRPHSVPRP,-0.177
7,RRIRMRPPRLPRPRPRPMLVPRP,0.2
8,RRIRRRPPRLPRPRPRPKCKPRP,-0.0255
9,RRIRLRPPRLPRPRPRPMVKPRP,-0.147
10,RRIRMRPPRLPRPRPRPMGTPRP,0.301
11,RRIRQRPPRLPRPRPRPETFPRP,-0.0643
12,RRIRQRPPRLPRPRPRPQCRPRP,0.0527
13,RRIRNRPPRLPRPRPRPVHTPRP,0.0171
14,RRIRTRPPRLPRPRPRPCANPRP,-0.148
15,RRIRLRPPRLPRPRPRPSSQPRP,-0.0758
16,RRIRGRPPRLPRPRPRPMGQPRP,0.651
17,RRIRRRPPRLPRPRPRPKPNPRP,0.531
18,RRIRTRPPRLPRPRPRPALNPRP,-0.0937
19,RRIRGRPPRLPRPRPRPGKIPRP,1.93
20,RRIRVRPPRLPRPRPRPQLCPRP,-0.143
21,RRIRPRPPRLPRPRPRPILWPRP,0.0824
22,RRIRLRPPRLPRPRPRPYYLPRP,-0.477
23,RRIRVRPPRLPRPRPRPDAVPRP,0.141
24,RRIRIRPPRLPRPRPRPQWCPRP,0.307
25,RRIRSRPPRLPRPRPRPGSQPRP,-0.492

row,Sequence,shrunken log2 fold change
1,RRIRSRPPRLPRPRPRPEWQPRP,0.254
2,RRIRARPPRLPRPRPRPYDLPRP,0.0526
3,RRIRERPPRLPRPRPRPKIYPRP,-0.165
4,RRIRRRPPRLPRPRPRPCMSPRP,-0.00622
5,RRIRYRPPRLPRPRPRPWTFPRP,-0.225
6,RRIRKRPPRLPRPRPRPVHAPRP,0.464
7,RRIRIRPPRLPRPRPRPNHEPRP,0.042
8,RRIRPRPPRLPRPRPRPPFPPRP,0.454
9,RRIRDRPPRLPRPRPRPRYQPRP,0.204
10,RRIRWRPPRLPRPRPRPDCHPRP,-0.346
11,RRIRQRPPRLPRPRPRPIYRPRP,-0.0223
12,RRIRTRPPRLPRPRPRPWIEPRP,-0.042
13,RRIRGRPPRLPRPRPRPIELPRP,-0.0084
14,RRIRSRPPRLPRPRPRPGYSPRP,-0.407
15,RRIRHRPPRLPRPRPRPRYVPRP,-0.585
16,RRIRTRPPRLPRPRPRPSVMPRP,-0.372
17,RRIRERPPRLPRPRPRPKPFPRP,-0.37
18,RRIRLRPPRLPRPRPRPNTQPRP,-0.0732
19,RRIRHRPPRLPRPRPRPAHKPRP,-0.0386
20,RRIRVRPPRLPRPRPRPRQMPRP,0.117
21,RRIRWRPPRLPRPRPRPQKRPRP,0.00899
22,RRIRFRPPRLPRPRPRPQSDPRP,0.0151
23,RRIRARPPRLPRPRPRPIAIPRP,0.0259
24,RRIRNRPPRLPRPRPRPQNKPRP,-0.666
25,RRIRKRPPRLPRPRPRPHGWPRP,0.865

# — the supplement of paper PMC9112550, “Optimization of the antimicrobial peptide Bac7 by deep mutational scanning” (BMC Biology, 2022)
